The values that follow come from publication PMC11285730 (Open Biology, 2024).

The chains are these.
B1: A8 monomer (VHH)
VHH: QVQLVESGGGLVQAGGSLRLSCAASGGTFSTAAMGWFRQAPGEERECVASIGWRGVRTWYADSVKGRFTISRDNPQNTVYLQMNNLKSGDTAVYYCAASVGNYGLPWAHFEYDFWGQGIQVTVSS
B2: B5-5 monomer (VHH)
VHH: QVQLVESGGGLVQPGGSLRLSCAVFGSTLDNYSVGWFRQLPGKEREGLACFSRRYGAPYYADSAKDRFTISRDNAKNTVDLQLNGLKPEDTAVYYCATRSGPYCTTSVSDFDDWGRGTQVTVSS
B3: H6 monomer (VHH)
VHH: QVQLVESGGGLVQPGGSLTLSCVASESSLAPYRVAWFRQAPGKEREGVSCISRDAHPTSTYYTASVKGRFTMSRDNAKNTVYLQMNSLKPSDTAVYYCATDLGGYCSDSNYPRAWWGQGTQVTVSS

Broadly, the Kd is the free concentration of one partner at which half of the binding sites on the other are occupied at equilibrium, for simple one-to-one binding. A high value points to weaker binding. The term koff denotes a measure of how fast the partners let go of each other. For orientation: kon means the rate constant with which the complex forms. A higher kon goes with faster complex formation.

The target in the first test is T1, SARS-CoV-2 Beta RBD, biotin-tagged (SARS-CoV-2 Beta (B.1.351), E484K | N501Y, biotin).
T1 construct: source: Expi293, purified
The test is described as follows: BLI. Particulars: both partners purified.
In turn, B1 showed a Kd of 0.889 nM, a koff of 0.000289 s⁻¹ and a kon of 326000 M⁻¹ s⁻¹.
The molecule B2 registered a Kd of 0.0655 nM, a koff of 1.29e-05 s⁻¹ and a kon of 216000 M⁻¹ s⁻¹.
In turn, B3 registered a Kd of 0.677 nM, a koff of 0.000337 s⁻¹ and a kon of 498000 M⁻¹ s⁻¹.

In the next test the target is T2, SARS-CoV-2 Omicron BA.4/5 RBD, biotin-tagged (SARS-CoV-2 Omicron BA.4/5, S371F | S375F | D405N | R408S | L452R | E484A | F486V | N501Y, biotin).
T2 construct: source: Expi293, purified
The experiment in a line: BLI. Particulars: both partners purified.
Molecule B1 had a Kd of 8.1 nM, a dissociation rate constant (koff) of 0.00283 s⁻¹ and a kon of 349000 M⁻¹ s⁻¹.
The molecule B2 had a Kd of 0.684 nM, a koff of 0.000129 s⁻¹ and a kon of 190000 M⁻¹ s⁻¹.
The molecule B3 displayed a Kd of 7.08 nM, a koff of 0.00235 s⁻¹ and a kon of 333000 M⁻¹ s⁻¹.

Another test deals with T3, SARS-CoV-2 Omicron BA.1 RBD, biotin-tagged (SARS-CoV-2 Omicron BA.1, S371L | S375F | K/V417N | S477N | E484A | N501Y | Y505H, biotin).
T3 construct: source: Expi293, purified
The experiment in a line: BLI. Particulars: both partners purified.
The molecule B1 came in with a Kd of 15.7 nM, a koff of 0.0053 s⁻¹ and a kon of 343000 M⁻¹ s⁻¹.
For B2 the same measures were 0.355 nM, 0.000204 s⁻¹ and 576000 M⁻¹ s⁻¹.
Molecule B3 came in with a Kd of 22.7 nM, a koff of 0.00553 s⁻¹ and a kon of 245000 M⁻¹ s⁻¹.
